The record followed here is the Immune Epitope Database (IEDB).

Holding throughout (conditions): source organism: Hepatitis B virus
For assay [1], the target named is HLA-A*02:03. Put plainly: IEDB peptide-MHC binding, purified MHC/competitive/radioactivity; ≥ and ≤ were set here for values at or beyond the usual limits of such assays.
Assay [2] addresses HLA-A*02:01. The assay is described as above.
Assay [3] deals with HLA-A*31:01. The description is as above.
The target of assay [4] is HLA-A*02:06. The assay is described as above.
Assay [5] addresses HLA-A*68:02. The assay is described as above.
The target of a further assay is HLA-A*68:01. Put plainly: IEDB peptide-MHC binding, cellular MHC/competitive/fluorescence; ≥ and ≤ were set here for values at or beyond the usual limits of such assays.
The target of assay [6] is HLA-A*03:01. Described as above.
In another assay the target is HLA-A*11:01. Described as above.
For assay [7], the target named is HLA-A*02:02. Put plainly: IEDB peptide-MHC binding, purified MHC/competitive/radioactivity; ≥ and ≤ were set here for values at or beyond the usual limits of such assays.
Assay [8] addresses HLA-A*31:01. Put plainly: IEDB peptide-MHC binding, cellular MHC/competitive/fluorescence; ≥ and ≤ were set here for values at or beyond the usual limits of such assays.
For assay [9], the target named is HLA-A*68:02. Described as above.
The target in assay [10] is HLA-A*02:03. The assay is described as above.
Assay [11] addresses HLA-A*02:02. The assay is described as above.
Assay [12] addresses HLA-A*02:01. Described as above.
The target in assay [13] is HLA-A*02:06. The assay is described as above.
Assay [14] concerns the target HLA-A*03:01. Put plainly: IEDB peptide-MHC binding, purified MHC/competitive/radioactivity; ≥ and ≤ were set here for values at or beyond the usual limits of such assays.

The term IC50 denotes the point on the concentration scale where inhibition reaches its midpoint.

On to LVPFVQWFV, for which the IC50 with HLA-A*02:03 [1] was 0.071 µM; with HLA-A*02:01 [2] it was 0.168 µM; in the assay with HLA-A*31:01 [3] it was 1.82 µM; in the assay with HLA-A*02:06 [4] it was 0.055 µM; with HLA-A*68:02 [5], 0.019 µM; with HLA-A*68:01 it was at least 70 µM. Also, the IC50 was at least 70 µM in the assay with HLA-A*03:01 [6] and 69.8 µM with HLA-A*11:01.

Take MMWYWGPSL: the concentration for half-maximal inhibition (IC50) in the assay with HLA-A*02:03 [1] is 0.054 µM; in the assay with HLA-A*02:02 [7], 0.137 µM; with HLA-A*31:01 [3] it was 0.131 µM; with HLA-A*68:01, at least 70 µM.

As to NLSWLSLDV, the IC50 with HLA-A*02:03 [1] was 0.05 µM; in the assay with HLA-A*02:02 [7], 0.069 µM; with HLA-A*02:06 [4] it was 2.74 µM; with HLA-A*68:01, at least 70 µM; with HLA-A*03:01 [6] it was 9.22 µM; in the assay with HLA-A*31:01 [8], 15.4 µM. Further, the IC50 in the assay with HLA-A*68:02 [9] is 28.4 µM; with HLA-A*11:01 it was at least 70 µM.

Turning to PLLPIFFCL, the IC50 with HLA-A*02:03 [1] was 0.637 µM; with HLA-A*02:02 [7] it was 0.063 µM; with HLA-A*02:01 [2] it was 0.111 µM; with HLA-A*02:06 [4] it was 0.087 µM; with HLA-A*68:01 it was 44.2 µM; in the assay with HLA-A*03:01 [6], at least 70 µM. For the same sequence, the IC50 is 9.87 µM with HLA-A*31:01 [8], 33.1 µM with HLA-A*68:02 [9] and at least 70 µM in the assay with HLA-A*11:01.

Take RILTIPQSL: the IC50 is at least 70 µM in the assay with HLA-A*68:01; 9.77 µM with HLA-A*02:03 [10]; 6.45 µM with HLA-A*02:02 [11]; at least 70 µM with HLA-A*03:01 [6]; 39.1 µM in the assay with HLA-A*02:01 [12]; 36.9 µM with HLA-A*31:01 [8]. Also, the IC50 is 5.95 µM in the assay with HLA-A*02:06 [13], at least 70 µM with HLA-A*68:02 [9] and at least 70 µM with HLA-A*11:01.

Consider RVRGLYFPA, for which the IC50 is 3.96 µM with HLA-A*02:03 [1]; 3.12 µM with HLA-A*02:02 [7]; 0.024 µM in the assay with HLA-A*31:01 [3]; at least 70 µM with HLA-A*68:01; at least 70 µM with HLA-A*03:01 [6]; 18 µM in the assay with HLA-A*02:01 [12]. The IC50 with HLA-A*02:06 [13] was 8.24 µM; with HLA-A*68:02 [9] it was 17.2 µM; with HLA-A*11:01, at least 70 µM.

Take SLYADSPSV: the IC50 is 0.0034 µM with HLA-A*02:03 [1]; 0.012 µM with HLA-A*02:02 [7]; 2.02 µM in the assay with HLA-A*03:01 [14]; 0.883 µM with HLA-A*02:06 [4]; at least 70 µM in the assay with HLA-A*68:01; 14.6 µM in the assay with HLA-A*31:01 [8]. The IC50 with HLA-A*68:02 [9] is 13.7 µM; with HLA-A*11:01, at least 70 µM.

With SLYSILSPFL, the IC50 with HLA-A*02:03 [1] amounted to 0.013 µM; with HLA-A*02:02 [7], 0.001 µM; with HLA-A*02:01 [2], 0.0082 µM; with HLA-A*02:06 [4], 0.076 µM; with HLA-A*68:01 it was 64 µM; in the assay with HLA-A*03:01 [6], 14.3 µM. Besides, the IC50 is 5.67 µM with HLA-A*31:01 [8], 6.67 µM with HLA-A*68:02 [9] and at least 70 µM with HLA-A*11:01.

On to SMYPSCCCT, for which the IC50 with HLA-A*68:01 is at least 70 µM; with HLA-A*02:03 [10], 5.52 µM; in the assay with HLA-A*02:02 [11], 10.3 µM; in the assay with HLA-A*03:01 [6], at least 70 µM; with HLA-A*02:01 [12] it was 6.43 µM; in the assay with HLA-A*31:01 [8] it was 68.4 µM. Further, the figures for the IC50 in the assay with HLA-A*02:06 [13], with HLA-A*68:02 [9] and in the assay with HLA-A*11:01 were 9.31 µM, at least 70 µM and at least 70 µM, respectively.

Turning to VLLDYQGML, the IC50 in the assay with HLA-A*02:02 [7] was 0.053 µM; with HLA-A*02:01 [2] it was 0.081 µM; with HLA-A*02:06 [4], 0.679 µM; with HLA-A*68:01, at least 70 µM; with HLA-A*02:03 [10], 22.6 µM; in the assay with HLA-A*03:01 [6], at least 70 µM. Moreover, the results for the half-inhibitory concentration (IC50) in the assay with HLA-A*31:01 [8], with HLA-A*68:02 [9] and with HLA-A*11:01 were 12.8 µM, at least 70 µM and 35.2 µM, respectively.

For WMMWYWGPSL, the IC50 is 0.068 µM with HLA-A*02:03 [1]; 0.354 µM with HLA-A*02:02 [7]; 0.784 µM with HLA-A*31:01 [3]; 0.305 µM with HLA-A*02:06 [4]; 3.59 µM with HLA-A*68:02 [5]; at least 70 µM with HLA-A*68:01. For the same sequence, the values for the IC50 with HLA-A*03:01 [6] and with HLA-A*11:01 were 15.4 µM and at least 70 µM, respectively.

For the sequence YLVSFGVWI, the IC50 in the assay with HLA-A*02:03 [1] is 0.311 µM; with HLA-A*02:02 [7], 0.14 µM; with HLA-A*02:01 [2], 0.173 µM; with HLA-A*02:06 [4], 1.84 µM; in the assay with HLA-A*68:01, at least 70 µM; in the assay with HLA-A*03:01 [6] it was 15.2 µM. The IC50 with HLA-A*31:01 [8] was at least 70 µM; with HLA-A*68:02 [9], 38.2 µM; in the assay with HLA-A*11:01, at least 70 µM.

In the case of YQGMLPVCPL, the IC50 with HLA-A*02:03 [1] is 0.02 µM; with HLA-A*02:02 [7], 0.035 µM; with HLA-A*02:01 [2], 0.543 µM; with HLA-A*02:06 [4], 0.165 µM; with HLA-A*68:01, at least 70 µM; with HLA-A*03:01 [6], 24 µM. Also, the IC50 is 11.4 µM with HLA-A*31:01 [8], 5.34 µM in the assay with HLA-A*68:02 [9] and at least 70 µM with HLA-A*11:01.
